In US20100272750A1:
Like-named read-outs stand apart in the source and are kept apart here.

Assays:
Assay in all cases: 125I-probe competition, purified HLA
HLA A0201 (human) = target: HLA A0201 (human)
HLA A0202 (human) = target: HLA A0202 (human)
HLA A0203 (human) = target: HLA A0203 (human)
HLA A0206 (human) = target: HLA A0206 (human)
HLA A6802 (human) = target: HLA A6802 (human)
HLA A2302 (human) = target: HLA A2302 (human)
HLA A2402 (human) = target: HLA A2402 (human)
HLA A2902 (human) = target: HLA A2902 (human)
HLA A3002 (human) = target: HLA A3002 (human)
HLA A0301 (human) = target: HLA A0301 (human)
HLA A1101 (human) = target: HLA A1101 (human)
HLA A3101 (human) = target: HLA A3101 (human)
HLA A6801 (human) = target: HLA A6801 (human)
HLA A0101 (human) = target: HLA A0101 (human)
HLA A2601 (human) = target: HLA A2601 (human)
[1] = remark: other sources report otherwise

GTLGIVCPV (modifications not checked) [HPV16.E7.85.V9]
IC50 (HLA A0201 (human)): 20 nM | IC50 (HLA A0202 (human)): 49 nM | IC50 (HLA A0203 (human)): 68 nM | IC50 (HLA A0206 (human)): 33 nM | IC50 (HLA A6802 (human)): 32 nM

LYGVSFSEL (modifications not checked) [HPV16.E1.214]
IC50 (HLA A2302 (human)): 7.2 nM | IC50 (HLA A2402 (human)): 3.1 nM

SYFGMSFIHF (modifications not checked) [HPV18/45.E1.491]
IC50 (HLA A2302 (human)): 4.3 nM | IC50 (HLA A2402 (human)): 17.5 nM | IC50 (HLA A2902 (human)): 62 nM | IC50 (HLA A3002 (human)): 1540 nM

SLQDIEITCV (modifications not checked) [HPV18.E6.24]
IC50 (HLA A0201 (human)): 153 nM | IC50 (HLA A0202 (human)): 25 nM | IC50 (HLA A0203 (human)): 38 nM | IC50 (HLA A0206 (human)): 205 nM

VYVFCFLLPM (modifications not checked) [HPV18.E5.52]
IC50 (HLA A2302 (human)): 57 nM | IC50 (HLA A2402 (human)): 178 nM | IC50 (HLA A2902 (human)): 5280 nM

KLTNKGICDL (modifications not checked) [HPV31.E6.90]
IC50 (HLA A0201 (human)): 205 nM | IC50 (HLA A0202 (human)): 440 nM | IC50 (HLA A0203 (human)): 585 nM | IC50 (HLA A0206 (human)): 484 nM

YYMTDAGTW (modifications not checked) [HPV18.E2.142]
IC50 (HLA A2302 (human)): 14 nM | IC50 (HLA A2402 (human)): 3.2 nM | IC50 (HLA A2902 (human)): 3410 nM | IC50 (HLA A3002 (human)): 2150 nM

ILYAHIQCL (modifications not checked) [HPV18.E1.266]
IC50 (HLA A0201 (human); [1]): 33 nM | IC50 (HLA A0202 (human); [1]): 8.5 nM | IC50 (HLA A0203 (human); [1]): 10.2 nM | IC50 (HLA A0206 (human); [1]): 236 nM

SVYGETLEK (modifications not checked) [HPV45.E6.84]
IC50 (HLA A0301 (human)): 21 nM | IC50 (HLA A1101 (human)): 9.5 nM | IC50 (HLA A3101 (human)): 6510 nM | IC50 (HLA A6801 (human)): 7.2 nM

FYSKVSEFRW (modifications not checked) [HPV31.E6.69]
IC50 (HLA A2302 (human)): 8.8 nM | IC50 (HLA A2402 (human)): 4.5 nM | IC50 (HLA A2902 (human)): 1780 nM | IC50 (HLA A3002 (human)): 1360 nM

ATTPIIHLK (modifications not checked) [HPV31.E2.291]
IC50 (HLA A0301 (human)): 10 nM | IC50 (HLA A1101 (human)): 1.2 nM | IC50 (HLA A3101 (human)): 34 nM | IC50 (HLA A6801 (human)): 2.5 nM

KSLFGMSLMK (modifications not checked) [HPV16.E1.483]
IC50 (HLA A0301 (human)): 3.9 nM | IC50 (HLA A1101 (human)): 2 nM | IC50 (HLA A3101 (human)): 230 nM | IC50 (HLA A6801 (human)): 887 nM

NTELYNLLI (modifications not checked) [HPV45.E6.95]
IC50 (HLA A0101 (human)): 32 nM | IC50 (HLA A2601 (human)): 17300 nM

TVSATQLVK (modifications not checked) [HPV18.E2.211]
IC50 (HLA A0301 (human)): 7 nM | IC50 (HLA A1101 (human)): 4 nM | IC50 (HLA A3101 (human)): 6140 nM | IC50 (HLA A6801 (human)): 31 nM

AATKYPLLK (modifications not checked) [HPV16.E4.9]
IC50 (HLA A0301 (human)): 59 nM | IC50 (HLA A1101 (human)): 20 nM

KLLSKLLCV (modifications not checked) [HPV16.E1.292]
IC50 (HLA A0201 (human)): 31 nM | IC50 (HLA A0202 (human)): 67.7 nM | IC50 (HLA A0203 (human)): 23 nM | IC50 (HLA A0206 (human)): 125 nM

VFTFPNPFPF (modifications not checked) [HPV31.E1.565]
IC50 (HLA A2302 (human)): 12 nM | IC50 (HLA A2402 (human)): 17 nM | IC50 (HLA A2902 (human)): 603 nM

KLLEKLLCI (modifications not checked) [HPV31.E1.272]
IC50 (HLA A0201 (human)): 19 nM | IC50 (HLA A0202 (human)): 21 nM | IC50 (HLA A0203 (human)): 2.4 nM | IC50 (HLA A0206 (human)): 51 nM

LSSALEIPY (modifications not checked) [HPV31.E6.15]
IC50 (HLA A0101 (human)): 35 nM | IC50 (HLA A2601 (human)): 4110 nM | IC50 (HLA A2902 (human)): 261 nM | IC50 (HLA A3002 (human)): 175 nM

VMDDSEIAY (modifications not checked) [HPV31.E1.349]
IC50 (HLA A0101 (human)): 18 nM | IC50 (HLA A2902 (human)): 95 nM | IC50 (HLA A3002 (human)): 2550 nM

NTGILTVTY (modifications not checked) [HPV45.E2.332]
IC50 (HLA A0101 (human)): 337 nM | IC50 (HLA A2601 (human)): 3150 nM | IC50 (HLA A2902 (human)): 1400 nM | IC50 (HLA A3002 (human)): 8720 nM

ATLQDIVLH (modifications not checked) [HPV18.E7.6]
IC50 (HLA A0301 (human)): 211 nM | IC50 (HLA A1101 (human)): 11 nM | IC50 (HLA A3101 (human)): 543 nM

KSAIVTLTY (modifications not checked) [HPV16.E2.329]
IC50 (HLA A0101 (human)): 9 nM | IC50 (HLA A3002 (human)): 6 nM

STDLRDHIDY (modifications not checked) [HPV16.E2.23]
IC50 (HLA A0101 (human)): 113 nM | IC50 (HLA A2601 (human)): 758 nM | IC50 (HLA A3002 (human)): 17 nM
